According to patent US20260242419A1, “A CYCLIC PEPTIDE FOR TRAPPING INTERLEUKIN-1 BETA” (Merck Sharp & Dohme LLC, priority 2023, published 2026):
Starred links: 1 amine or outer side, 2 acyl side, 3 side chain; linkers in the order of their positions; H or OH if unused. Non-standard residues stand in square brackets, D forms with d. dProc3Bn4Pyrim2NMe = (2R,3S)-3-[[4-[2-(methylamino)pyrimidin-5-yl]phenyl]methyl]pyrrolidine-2-carboxylic acid, CNc1ncc(-c2ccc(C[C@H]3CCN([*:1])[C@H]3C(=O)[*:2])cc2)cn1; dProc3Bn4Pyrim2OMe = (2R,3S)-3-[[4-(2-methoxypyrimidin-5-yl)phenyl]methyl]pyrrolidine-2-carboxylic acid, COc1ncc(-c2ccc(C[C@H]3CCN([*:1])[C@H]3C(=O)[*:2])cc2)cn1; dProc3Bn4Pyrim2NH2 = (2R,3S)-3-[[4-(2-aminopyrimidin-5-yl)phenyl]methyl]pyrrolidine-2-carboxylic acid, Nc1ncc(-c2ccc(C[C@H]3CCN([*:1])[C@H]3C(=O)[*:2])cc2)cn1; dProc3Bn4Pyraz5NH2 = (2R,3S)-3-[[4-(5-aminopyrazin-2-yl)phenyl]methyl]pyrrolidine-2-carboxylic acid, Nc1cnc(-c2ccc(C[C@H]3CCN([*:1])[C@H]3C(=O)[*:2])cc2)cn1; dProc3Bn4Pyrim = (2R,3S)-3-[(4-pyrimidin-5-ylphenyl)methyl]pyrrolidine-2-carboxylic acid, O=C([C@H]1[C@@H](Cc2ccc(-c3cncnc3)cc2)CCN1[*:1])[*:2]; dProc3Bn4Pyrz = (2R,3S)-3-[(4-pyridazin-4-ylphenyl)methyl]pyrrolidine-2-carboxylic acid, O=C([C@H]1[C@@H](Cc2ccc(-c3ccnnc3)cc2)CCN1[*:1])[*:2]; dProc3Bn4Pyr3 = (2R,3S)-3-[[4-(3-pyridyl)phenyl]methyl]pyrrolidine-2-carboxylic acid, O=C([C@H]1[C@@H](Cc2ccc(-c3cccnc3)cc2)CCN1[*:1])[*:2]; dProc3Bn4Pyr4 = (2R,3S)-3-[[4-(4-pyridyl)phenyl]methyl]pyrrolidine-2-carboxylic acid, O=C([C@H]1[C@@H](Cc2ccc(-c3ccncc3)cc2)CCN1[*:1])[*:2]; TyrEtNAc = (2S)-3-[4-(2-acetamidoethoxy)phenyl]-2-amino-propanoic acid, CC(=O)NCCOc1ccc(C[C@H](N[*:1])C(=O)[*:2])cc1; dPro(4R-(4-pyridylmethyl)) = O=C(O)[C@H]1C[C@@H](Cc2ccncc2)CN1; dPro(3S-(4-Br-benzyl)) = O=C(O)[C@@H]1NCC[C@@H]1Cc1ccc(Br)cc1; Trp(βS-Me,4-F) = C[C@@H](c1c[nH]c2cccc(F)c12)[C@H](N)C(=O)O; Bip(4'-COOH) = N[C@@H](Cc1ccc(-c2ccc(C(=O)O)cc2)cc1)C(=O)O; Ala(1-bicyclo(1.1.1)pentyl) = N[C@@H](CC12CC(C1)C2)C(=O)O; dPro(4R-Bzl(4-F)) = O=C(O)[C@H]1C[C@@H](Cc2ccc(F)cc2)CN1; Ala(pyrimidin-5-yl) = N[C@@H](Cc1cncnc1)C(=O)O; Phe(4-COOH) = N[C@@H](Cc1ccc(C(=O)O)cc1)C(=O)O; Pro(cis-4-F) = O=C(O)[C@@H]1C[C@H](F)CN1; 4Pal = N[C@@H](Cc1ccncc1)C(=O)O; Cit = NC(=O)NCCC[C@H](N)C(=O)O; Dab = NCC[C@H](N)C(=O)O; Aib = CC(C)(N)C(=O)O

Molecular target: Recombinant human IL-1β (BioLegend 579404) (human, UniProt P01584 117-269)
Test: cell-based or functional assay

Binder	MRC5 IC50
cyclo([Bip(4'-COOH)][4Pal][Phe(4-COOH)]G[Pro(cis-4-F)][Trp(βS-Me,4-F)][Aib]EW[Aib][Ala(pyrimidin-5-yl)]Q[Dab]G[dPro(3S-(4-Br-benzyl))]) [SEQ ID NO: 51]	0.014 nM
cyclo([Bip(4'-COOH)][4Pal][Phe(4-COOH)]G[Pro(cis-4-F)][Trp(βS-Me,4-F)][Aib]EW[Aib][Ala(pyrimidin-5-yl)]Q[Dab]G[dProc3Bn4Pyrim2NMe]) (SMILES CNc1ncc(-c2ccc(C[C@H]3CCN4C(=O)CNC(=O)[C@H](CCN)NC(=O)[C@H](CCC(N)=O)NC(=O)[C@H](Cc5cncnc5)NC(=O)C(C)(C)NC(=O)[C@H](Cc5c[nH]c6ccccc56)NC(=O)[C@H](CCC(=O)O)NC(=O)C(C)(C)NC(=O)[C@H]([C@@H](C)c5c[nH]c6cccc(F)c56)NC(=O)[C@@H]5C[C@H](F)CN5C(=O)CNC(=O)[C@H](Cc5ccc(C(=O)O)cc5)NC(=O)[C@H](Cc5ccncc5)NC(=O)[C@H](Cc5ccc(-c6ccc(C(=O)O)cc6)cc5)NC(=O)[C@@H]34)cc2)cn1) [SEQ ID NO: 54]	0.021 nM
cyclo([Bip(4'-COOH)][4Pal][Phe(4-COOH)]G[Pro(cis-4-F)][Trp(βS-Me,4-F)][Aib]EW[Aib][Ala(pyrimidin-5-yl)]Q[Dab]G[dProc3Bn4Pyraz5NH2]) (SMILES C[C@@H](c1c[nH]c2cccc(F)c12)[C@@H]1NC(=O)[C@@H]2C[C@H](F)CN2C(=O)CNC(=O)[C@H](Cc2ccc(C(=O)O)cc2)NC(=O)[C@H](Cc2ccncc2)NC(=O)[C@H](Cc2ccc(-c3ccc(C(=O)O)cc3)cc2)NC(=O)[C@H]2[C@@H](Cc3ccc(-c4cnc(N)cn4)cc3)CCN2C(=O)CNC(=O)[C@H](CCN)NC(=O)[C@H](CCC(N)=O)NC(=O)[C@H](Cc2cncnc2)NC(=O)C(C)(C)NC(=O)[C@H](Cc2c[nH]c3ccccc23)NC(=O)[C@H](CCC(=O)O)NC(=O)C(C)(C)NC1=O) [SEQ ID NO: 57]	0.019 nM
cyclo([Bip(4'-COOH)][4Pal][Phe(4-COOH)]G[Pro(cis-4-F)][Trp(βS-Me,4-F)][Aib]EW[Aib][Ala(pyrimidin-5-yl)]Q[Dab]G[dProc3Bn4Pyr3]) (SMILES C[C@@H](c1c[nH]c2cccc(F)c12)[C@@H]1NC(=O)[C@@H]2C[C@H](F)CN2C(=O)CNC(=O)[C@H](Cc2ccc(C(=O)O)cc2)NC(=O)[C@H](Cc2ccncc2)NC(=O)[C@H](Cc2ccc(-c3ccc(C(=O)O)cc3)cc2)NC(=O)[C@H]2[C@@H](Cc3ccc(-c4cccnc4)cc3)CCN2C(=O)CNC(=O)[C@H](CCN)NC(=O)[C@H](CCC(N)=O)NC(=O)[C@H](Cc2cncnc2)NC(=O)C(C)(C)NC(=O)[C@H](Cc2c[nH]c3ccccc23)NC(=O)[C@H](CCC(=O)O)NC(=O)C(C)(C)NC1=O) [SEQ ID NO: 56]	0.022 nM
cyclo([Bip(4'-COOH)][4Pal][Phe(4-COOH)]G[Pro(cis-4-F)][Trp(βS-Me,4-F)][Aib]EW[Aib][Ala(pyrimidin-5-yl)]Q[Dab]G[dProc3Bn4Pyr4]) (SMILES C[C@@H](c1c[nH]c2cccc(F)c12)[C@@H]1NC(=O)[C@@H]2C[C@H](F)CN2C(=O)CNC(=O)[C@H](Cc2ccc(C(=O)O)cc2)NC(=O)[C@H](Cc2ccncc2)NC(=O)[C@H](Cc2ccc(-c3ccc(C(=O)O)cc3)cc2)NC(=O)[C@H]2[C@@H](Cc3ccc(-c4ccncc4)cc3)CCN2C(=O)CNC(=O)[C@H](CCN)NC(=O)[C@H](CCC(N)=O)NC(=O)[C@H](Cc2cncnc2)NC(=O)C(C)(C)NC(=O)[C@H](Cc2c[nH]c3ccccc23)NC(=O)[C@H](CCC(=O)O)NC(=O)C(C)(C)NC1=O) [SEQ ID NO: 55]	0.024 nM
cyclo([Bip(4'-COOH)][4Pal][Phe(4-COOH)]G[Pro(cis-4-F)][Trp(βS-Me,4-F)][Aib]EW[Aib][Ala(pyrimidin-5-yl)]Q[Dab]G[dProc3Bn4Pyrim2OMe]) (SMILES COc1ncc(-c2ccc(C[C@H]3CCN4C(=O)CNC(=O)[C@H](CCN)NC(=O)[C@H](CCC(N)=O)NC(=O)[C@H](Cc5cncnc5)NC(=O)C(C)(C)NC(=O)[C@H](Cc5c[nH]c6ccccc56)NC(=O)[C@H](CCC(=O)O)NC(=O)C(C)(C)NC(=O)[C@H]([C@@H](C)c5c[nH]c6cccc(F)c56)NC(=O)[C@@H]5C[C@H](F)CN5C(=O)CNC(=O)[C@H](Cc5ccc(C(=O)O)cc5)NC(=O)[C@H](Cc5ccncc5)NC(=O)[C@H](Cc5ccc(-c6ccc(C(=O)O)cc6)cc5)NC(=O)[C@@H]34)cc2)cn1) [SEQ ID NO: 60]	0.018 nM
cyclo([TyrEtNAc][Ala(1-bicyclo(1.1.1)pentyl)][Phe(4-COOH)]G[Pro(cis-4-F)][Trp(βS-Me,4-F)][Aib]EW[Aib][Ala(pyrimidin-5-yl)]Q[Dab]G[dPro(4R-(4-pyridylmethyl))]) (SMILES CC(=O)NCCOc1ccc(C[C@@H]2NC(=O)[C@H]3C[C@@H](Cc4ccncc4)CN3C(=O)CNC(=O)[C@H](CCN)NC(=O)[C@H](CCC(N)=O)NC(=O)[C@H](Cc3cncnc3)NC(=O)C(C)(C)NC(=O)[C@H](Cc3c[nH]c4ccccc34)NC(=O)[C@H](CCC(=O)O)NC(=O)C(C)(C)NC(=O)[C@H]([C@@H](C)c3c[nH]c4cccc(F)c34)NC(=O)[C@@H]3C[C@H](F)CN3C(=O)CNC(=O)[C@H](Cc3ccc(C(=O)O)cc3)NC(=O)[C@H](CC34CC(C3)C4)NC2=O)cc1) [SEQ ID NO: 50]	0.044 nM
cyclo([Bip(4'-COOH)][4Pal][Phe(4-COOH)]G[Pro(cis-4-F)][Trp(βS-Me,4-F)][Aib]EW[Aib][Cit]Q[Dab]G[dPro(4R-Bzl(4-F))]) (SMILES C[C@@H](c1c[nH]c2cccc(F)c12)[C@@H]1NC(=O)[C@@H]2C[C@H](F)CN2C(=O)CNC(=O)[C@H](Cc2ccc(C(=O)O)cc2)NC(=O)[C@H](Cc2ccncc2)NC(=O)[C@H](Cc2ccc(-c3ccc(C(=O)O)cc3)cc2)NC(=O)[C@H]2C[C@@H](Cc3ccc(F)cc3)CN2C(=O)CNC(=O)[C@H](CCN)NC(=O)[C@H](CCC(N)=O)NC(=O)[C@H](CCCNC(N)=O)NC(=O)C(C)(C)NC(=O)[C@H](Cc2c[nH]c3ccccc23)NC(=O)[C@H](CCC(=O)O)NC(=O)C(C)(C)NC1=O) [SEQ ID NO: 52]	0.021 nM
cyclo([Bip(4'-COOH)][4Pal][Phe(4-COOH)]G[Pro(cis-4-F)][Trp(βS-Me,4-F)][Aib]EW[Aib][Ala(pyrimidin-5-yl)]Q[Dab]G[dProc3Bn4Pyrz]) (SMILES C[C@@H](c1c[nH]c2cccc(F)c12)[C@@H]1NC(=O)[C@@H]2C[C@H](F)CN2C(=O)CNC(=O)[C@H](Cc2ccc(C(=O)O)cc2)NC(=O)[C@H](Cc2ccncc2)NC(=O)[C@H](Cc2ccc(-c3ccc(C(=O)O)cc3)cc2)NC(=O)[C@H]2[C@@H](Cc3ccc(-c4ccnnc4)cc3)CCN2C(=O)CNC(=O)[C@H](CCN)NC(=O)[C@H](CCC(N)=O)NC(=O)[C@H](Cc2cncnc2)NC(=O)C(C)(C)NC(=O)[C@H](Cc2c[nH]c3ccccc23)NC(=O)[C@H](CCC(=O)O)NC(=O)C(C)(C)NC1=O) [SEQ ID NO: 58]	0.037 nM
cyclo([Bip(4'-COOH)][4Pal][Phe(4-COOH)]G[Pro(cis-4-F)][Trp(βS-Me,4-F)][Aib]EW[Aib][Ala(pyrimidin-5-yl)]Q[Dab]G[dProc3Bn4Pyrim]) (SMILES C[C@@H](c1c[nH]c2cccc(F)c12)[C@@H]1NC(=O)[C@@H]2C[C@H](F)CN2C(=O)CNC(=O)[C@H](Cc2ccc(C(=O)O)cc2)NC(=O)[C@H](Cc2ccncc2)NC(=O)[C@H](Cc2ccc(-c3ccc(C(=O)O)cc3)cc2)NC(=O)[C@H]2[C@@H](Cc3ccc(-c4cncnc4)cc3)CCN2C(=O)CNC(=O)[C@H](CCN)NC(=O)[C@H](CCC(N)=O)NC(=O)[C@H](Cc2cncnc2)NC(=O)C(C)(C)NC(=O)[C@H](Cc2c[nH]c3ccccc23)NC(=O)[C@H](CCC(=O)O)NC(=O)C(C)(C)NC1=O) [SEQ ID NO: 53]	0.018 nM
cyclo([Bip(4'-COOH)][4Pal][Phe(4-COOH)]G[Pro(cis-4-F)][Trp(βS-Me,4-F)][Aib]EW[Aib][Ala(pyrimidin-5-yl)]Q[Dab]G[dProc3Bn4Pyrim2NH2]) (SMILES C[C@@H](c1c[nH]c2cccc(F)c12)[C@@H]1NC(=O)[C@@H]2C[C@H](F)CN2C(=O)CNC(=O)[C@H](Cc2ccc(C(=O)O)cc2)NC(=O)[C@H](Cc2ccncc2)NC(=O)[C@H](Cc2ccc(-c3ccc(C(=O)O)cc3)cc2)NC(=O)[C@H]2[C@@H](Cc3ccc(-c4cnc(N)nc4)cc3)CCN2C(=O)CNC(=O)[C@H](CCN)NC(=O)[C@H](CCC(N)=O)NC(=O)[C@H](Cc2cncnc2)NC(=O)C(C)(C)NC(=O)[C@H](Cc2c[nH]c3ccccc23)NC(=O)[C@H](CCC(=O)O)NC(=O)C(C)(C)NC1=O) [SEQ ID NO: 59]	0.018 nM
cyclo([Bip(4'-COOH)][4Pal][Phe(4-COOH)]G[Pro(cis-4-F)][Trp(βS-Me,4-F)][Aib]AW[Aib][Ala(pyrimidin-5-yl)]Q[Dab]G[dPro(4R-Bzl(4-F))]) (SMILES C[C@@H]1NC(=O)C(C)(C)NC(=O)[C@H]([C@@H](C)c2c[nH]c3cccc(F)c23)NC(=O)[C@@H]2C[C@H](F)CN2C(=O)CNC(=O)[C@H](Cc2ccc(C(=O)O)cc2)NC(=O)[C@H](Cc2ccncc2)NC(=O)[C@H](Cc2ccc(-c3ccc(C(=O)O)cc3)cc2)NC(=O)[C@H]2C[C@@H](Cc3ccc(F)cc3)CN2C(=O)CNC(=O)[C@H](CCN)NC(=O)[C@H](CCC(N)=O)NC(=O)[C@H](Cc2cncnc2)NC(=O)C(C)(C)NC(=O)[C@H](Cc2c[nH]c3ccccc23)NC1=O) [SEQ ID NO: 6]	0.057 nM
